Measured values: publication PMC10036606

Target: CD58 extracellular domain (human) (UniProt P19256)
UniProt P19256, sequence (P19256 29-215): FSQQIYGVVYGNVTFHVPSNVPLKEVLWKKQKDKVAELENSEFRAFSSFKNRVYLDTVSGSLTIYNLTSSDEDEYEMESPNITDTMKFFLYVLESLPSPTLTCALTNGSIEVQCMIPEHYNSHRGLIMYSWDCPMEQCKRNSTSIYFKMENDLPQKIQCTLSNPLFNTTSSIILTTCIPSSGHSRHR

glycocalyx exclusion on the SLB2 (reduction in fluorescence, contact tightness) in regions of CD58 accumulation under J8-GECI cells, against 20% in regions of ICAM-1 accumulation: 45%
Substance: CD2 (from UniProt P06729 25-351) (receptor)
